Assay results: publication PMC11481913, “Rational design of a flavoenzyme for aerobic nicotine catabolism” (mBio, 2024)

Target: the molecule itself
Assay: SEC; Superdex 200 Increase 10/300 GL; molecular weight by elution (Fig. S2)

B1: PnaoΔN30 (residues 31–497) (enzyme, Pseudomonas putida S16, UniProt F8G0P1 31-496, looked up)
chain: IASQLLTLSAPAEAAVKTNVGPSRAGVGYDVIVIGGGFAGVTAAREASRSGLKTLILEGRSRLGGRTFTSKLQNQKVELGGTWVHWTQPNVWTEIMHYGLEVEETVGLANPETVIWVTEDNVKRAPAAEAFEIFGSACNEYYKEARNIYPRPFEPFFERKKLQHVDGLSAADYLEKLPLTREQKDMMDSWLSGNGHNYPETIAYSEIMRWFALSNFNMPTMFDSIARYKIKTGTHSLLEAIMADGNSEVKLSTPVTKVNQDKDKVTVTTEDGVFTASAVIVAVPINTLHDIEYSPKLSAAKVDMGSQRHAGAGVKGYIRVKQNVGNVMTYAPARNKLTPFTSVFTDHVDESGTLLIAFSADPKLIDINDIKAVEKALQPLLPGVEVTASYGYDWNLDPFSKGTWCTYRPNQTTRYLTELQKREGRLFFAGSDMANGWRGFIDGAIENGREVGHQVATYLKRENDNA
notes: Pnao, flavin-dependent pseudooxynicotine oxidase of Pseudomonas putida S16; N-terminal truncation of 30 residues, residues 31-497; Cloned in pET-28a between NcoI and XhoI, which probably gives a C-terminal His6 tag; also called pseudooxynicotine amine oxidase; source: E. coli BL21(DE3), purified (Ni2+-NTA, size-exclusion chromatography)
stoichiometry N: 2
